Here are results for one molecule from patent US12679888B2, “IL-18 binding protein (IL-18BP) and antibodies for treating inflammatory diseases” (AB2 BIO SA, priority 2015, dated 2026).

“And” between values parts separate entries of the source, which are not always exact repeats. Equal entries are not always repeated.

One series has as its system G-CSF. The series is described as follows: G-CSF in BALF by ELISA, exacerbation/tobacco smoke mouse model. The series is classed as in vivo. Here is the method: (§1) Mice received either vehicle (PBS) or IL-18BP. IL-18BP was given subcutaneously to 3 groups of animals respectively at 1, 3 or 10 mg/kg 2 h prior to the initial tobacco smoke exposure from Day 1 to Day 4. Mice received orally either vehicle or dexamethasone (10 mg/kg) 1 h prior to each twice daily exposure. Mice received by intranasal administration either the vehicle or Polyinosinic:polycytidylic acid (2 mg/kg) 2 h prior to the initial air or tobacco smoke exposure on Day 4 to induce lung inflammation exacerbation. Tobacco smoke exposure was performed during the morning and afternoon as follow: Day 1 for 15 min, Day 2 for 25 min, Day 3 for 30 min and Day 4 for 30 min.
(§2) Following the above treatments, animals were terminally anaesthetised on Day 5. After that, a blood sample was taken via the sub-clavian artery (plasma) and the animals were bronchoalveloar lavaged with 3×0.4 ml of PBS for further cellular and cytokine/mediator analysis. Bronchoalveolar lavage supernatants were stored at −80° C. for cytokine/mediator analysis. Cells recovered from the BALF were counted using the Sysmex cell counter.
G-CSF is well acknowledged as key cytokine stimulating the survival, proliferation, differentiation, and function of neutrophil precursors and mature neutrophils. […] The presence of G-CSF in the BALF was monitored with a commercially available ELISA kit.

Series [1] concerns collagen-induced arthritis murine model. The series is described as follows: Collagen-induced arthritis murine model and dose extrapolation. In kind it is in vivo, mouse. Here is the method:
No validated animal model has been described for this condition. In the collagen-induced arthritis murine model the active dose for r-hIL-18BP administered intraperitoneally (i.p.) was determined to be 1 mg/Kg body weight. […] Altogether the expected pharmacologically active dose for a “humanized mice” treated by s.c. route with r-hIL-18BP is round 4.85 mg/kg. […] Although the guidance was initially written for extrapolating animal doses to healthy volunteers, its principles can be applied also to patients. […] Those doses will be likely also ineffective in AoSD patients considering that blood levels of IL-18 in AoSD are higher than those reported in the two above mentioned conditions.

In series [2] the target is T1, IL-18 (Homo sapiens, UniProt Q14116).
T1 sequence (Q14116 37-193): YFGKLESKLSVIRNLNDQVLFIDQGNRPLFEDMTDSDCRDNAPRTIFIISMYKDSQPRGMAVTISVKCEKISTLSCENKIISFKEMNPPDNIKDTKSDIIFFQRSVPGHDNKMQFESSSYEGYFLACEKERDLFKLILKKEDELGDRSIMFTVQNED
The series is described as follows: KD calculation by titration of IL-18 with IL-18BP, free IL-18 ELISA (IL-18BP capture). The series is classed as binding. On the set-up: purchased. The following applies: read-out: KD between human IL-18 and IL-18BP by titration. The protocol: Microplate wells are coated with an appropriate volume phosphate buffer saline solution containing recombinant human IL-18BP (r-hIL-18BP) as shown in SEQ ID NO 7, and less than 30% of N-terminal and/or C-terminal deletion variants of IL-18BP. A description of the r-hIL-18BP is provided in section 6.6.1 below. A description of the purification protocol is provided in section 6.6.2. Plates are incubated for a period of time at 4° C. and then stabilized with a blocking buffer containing bovine serum albumin or other appropriate blocking agents. Once the reaction is finished, microplates are sealed and stored at 4° C. until used for detection of free IL-18. Microplates can also be dried in a stabilizing solution allowing storage at room temperature and then be reconstituted by hydration when needed for assay.
As an example, for a final reaction volume of 100 μl, dispense first 80 μl of biotin/antibody conjugate. Samples or biological fluids containing free IL-18 are tested with the IL-18BP coated microplates. After that, 20 μl sample volume containing biological fluid or standard is dispensed per microplate well. […] The resulting reactions are then monitored with a microplate reader at an appropriate nanometer wavelength for absorbance or fluorescence of the produced reagent. […]
• KD was calculated based on the following formula: KD=[free IL-18]×[free IL-18BP]/[IL-18/IL-18BP complex] […]

In series [3] the target is T1, IL-18. Briefly: New BIAcore setup: IL-18BP bound to chip, affinity to IL-18. The series is classed as binding. On the set-up: purchased. To be noted: IL-18BP bound to BIAcore chip. The text has this:
Following the above KD results obtain by titration, we tested the binding affinity of IL-18BP to IL-18 with a simpler BIAcore setup consisting of binding IL-18BP to the BIAcore chip and then testing its affinity to IL-18. The method setup is the contrary of Kim et al 2000 ^8, who bound IL-18 to the BIAcore chip with a monoclonal antibody and then tested the affinity of the complex antibody-IL-18 to IL-18BP.
On the technique in general: SPR reads the build-up and loss of mass on a sensor chip optically.

A further series concerns C57BL/6J mice. Briefly: Four-day exacerbation/tobacco smoke mouse model (COPD exacerbation). The series is classed as in vivo. Here is the method: The aim of the study was to determine the effect of IL-18BP, administered at three dose levels, by the sub-cutaneous route, on Polyinosinic:polycytidylic acid-induced exacerbation of tobacco-smoke induced pulmonary inflammation, in C57BL/6J mice. High level of dexamethasone, dosed orally, was included in the study as a reference agent.
as §1, §2

The mark [4] stands for this setting: 3 and 10 mg/kg s.c., compared to positive control dexamethasone.

B1: IL-18BP: soluble glycoprotein of 164 amino acids produced from a Chinese Hamster Ovary cell line; isoform a, SEQ ID NO 7 (protein, listed as Homo sapiens)
chain: TPVSQTTTAATASVRSTKDPCPSQPPVFPAAKQCPALEVTWPEVEVPLNGTLSLSCVACSRFPNFSILYWLGNGSFIEHLPGRLWEGSTSRERGSTGTQLCKALVLEQLTPALHSTNFSCVLVDPEQVVQRHVVLAQLWAGLRATLPPTQEALPSSHSSPQQQG
modifications: CHO glycosylation; MISC_FEATURE - Human interleukin-18 binding protein isoform a
Take B1: the “G-CSF release in the lung airways (BALF)” value with G-CSF (IL-18BP s.c., day 5) is reported as “mitigates G-CSF release in the lung airways”; in the series on G-CSF (three tested doses 1, 3 or 10 mg/kg s.c.), “statistically relevant effect”. Besides, in series [1] (adjusted for s.c. bioavailability), the “effective s.c. dose in mice” value was 1.82 mg/kg. The active dose in series [1] (administered intraperitoneally (i.p.)) is reported as 1 mg/Kg body weight. In addition, the human equivalent dose in series [1] (allometric murine conversion factor of 12.3) is 0.39 mg/kg; in series [1] (for a 70 Kg individual), 27.3 mg. Also, the “expected pharmacologically active dose for a humanized mice” value in series [1] (s.c. route, corrected for Kd difference) is listed as roughly 4.85 mg/kg. The Kd in the series with IL-18 [2] (PBS supplemented by 5% BSA diluent) is 0.035 nM; in the series with IL-18 [2] (Serum diluent), 0.05 nM and ~0.05 nM; with IL-18 [3], 0.02 to 0.03 nM. Moreover, the Ka with IL-18 [3] is 5.3 ± 1.2 10^+5/MS. Further, in the series on C57BL/6J mice (10 mg/kg s.c.), the “exacerbated inflammation inhibition (total cell infiltration)” value was “clear and statistically relevant efficacy”. The “neutrophil infiltration in the lung airway space” value is listed as “best statistical efficacy” with C57BL/6J mice (10 mg/kg s.c.); “statistically valuable efficacy” in the series with C57BL/6J mice (setting [4]); “inhibited” in the series with C57BL/6J mice (IL-18BP s.c., day 5). For the same molecule, the “total cell infiltration in the lung airway space” value is “statistically valuable efficacy” with C57BL/6J mice (setting [4]) and “significant mitigation of total cell infiltration” in the series on C57BL/6J mice (IL-18BP s.c., day 5). For the same molecule, in the series with C57BL/6J mice (3 and 10 mg/kg s.c., large majority of mice), the weight loss was 6-7%. For the same molecule, the tolerability result in the series on C57BL/6J mice (IL-18BP s.c.) is on record as “well tolerated”. Further, the weight loss mitigation entry with C57BL/6J mice (IL-18BP s.c., Students t-test and ANOVA) is “mitigated by IL-18BP even though both Students t-test and ANOVA statistical analyses were not significant”.
